Article PMC4071823, “Gamma-secretase subunits associate in intracellular membrane compartments in Arabidopsis thaliana” (Journal of Experimental Botany, 2014)
One block for each binder: values may come before it.

How the values were obtained:
Experiment in all cases: FRET or BRET; FLIM-FRET in living A. thaliana leaf mesophyll protoplasts that co-express the two fusions; eGFP donor, mRFP acceptor; E=1−τDA/τD×100%; FRET efficiency above the threshold of 5% (free eGFP with free mRFP) taken as putative positive interaction
Settings in all cases: partners not purified
[1] = target: T1, AtAPH-1–RFP (Arabidopsis thaliana, UniProt Q8L9G7 1-250)
T1 construct: Arabidopsis thaliana APH-1 (AtAPH-1, At2g31440); FLIM-FRET acceptor; also called anterior pharynx-defective 1; source: A. thaliana leaf mesophyll protoplasts, transiently transfected (pSITE vector), in living cells; not shown: mRFP, C-terminal, kept

[2] = target: T2, AtPEN-2–RFP (Arabidopsis thaliana, UniProt Q9FY84 1-146)
T2 construct: Arabidopsis thaliana PEN-2 (AtPEN-2, At5g09310); FLIM-FRET acceptor; also called presenilin enhancer 2; source: A. thaliana leaf mesophyll protoplasts, transiently transfected (pSITE vector), in living cells; not shown: mRFP, C-terminal, kept
T2 sequence (looked up): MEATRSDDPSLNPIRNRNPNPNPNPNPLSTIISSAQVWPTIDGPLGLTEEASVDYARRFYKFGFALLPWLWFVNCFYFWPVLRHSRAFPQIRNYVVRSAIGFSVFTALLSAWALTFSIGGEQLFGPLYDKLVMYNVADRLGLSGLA

[3] = target: T3, AtNCT–RFP (Arabidopsis thaliana, UniProt Q8GUM5 29-676)
T3 construct: Arabidopsis thaliana nicastrin (AtNCT, At3g52640); FLIM-FRET acceptor; also called nicastrin; source: A. thaliana leaf mesophyll protoplasts, transiently transfected (pSITE vector), in living cells; not shown: mRFP, C-terminal, kept
T3 sequence (looked up): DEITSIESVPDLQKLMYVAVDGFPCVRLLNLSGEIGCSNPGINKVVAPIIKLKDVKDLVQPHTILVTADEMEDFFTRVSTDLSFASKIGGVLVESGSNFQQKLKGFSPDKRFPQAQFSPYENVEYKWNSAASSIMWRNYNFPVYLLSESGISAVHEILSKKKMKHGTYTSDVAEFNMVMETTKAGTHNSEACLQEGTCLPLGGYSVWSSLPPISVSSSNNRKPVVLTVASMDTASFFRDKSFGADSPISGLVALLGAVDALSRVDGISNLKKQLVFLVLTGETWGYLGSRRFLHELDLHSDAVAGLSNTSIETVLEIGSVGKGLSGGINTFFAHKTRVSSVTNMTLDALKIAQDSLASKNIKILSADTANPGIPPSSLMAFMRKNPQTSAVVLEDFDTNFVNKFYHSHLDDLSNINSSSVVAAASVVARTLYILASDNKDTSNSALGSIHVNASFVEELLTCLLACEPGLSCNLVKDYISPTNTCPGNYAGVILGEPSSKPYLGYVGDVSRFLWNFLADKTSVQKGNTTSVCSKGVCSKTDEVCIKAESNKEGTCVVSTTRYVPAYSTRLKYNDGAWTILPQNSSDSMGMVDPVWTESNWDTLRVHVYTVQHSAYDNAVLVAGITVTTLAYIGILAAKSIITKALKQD

T1 sequence (Q8L9G7 whole entry): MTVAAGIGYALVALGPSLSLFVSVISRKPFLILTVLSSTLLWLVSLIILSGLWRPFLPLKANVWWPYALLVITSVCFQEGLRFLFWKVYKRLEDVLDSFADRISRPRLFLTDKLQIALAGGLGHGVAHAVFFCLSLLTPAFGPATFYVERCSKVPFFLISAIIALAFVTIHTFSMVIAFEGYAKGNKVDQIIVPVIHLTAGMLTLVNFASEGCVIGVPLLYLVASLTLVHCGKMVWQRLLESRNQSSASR

- FRET efficiency, E_(FRET) [1]: 20%
- FRET efficiency, E_(FRET) [2]: 32%
B2: AtPS2–GFP (natural protein, Arabidopsis thaliana, UniProt Q9SIK7 1-397, looked up)
chain: MDRNQRPRSILDSLGEELIAILTPVSICMFTVVLLVCILNSDPSSSSASFSSIATAAYSESDSDSSWDKFVGALLNSVVFVAAITVATFVLVLLFYLRCVKFLKFYMGFSAFIVLGNLGGEILVLLIDRFRFPIDSITFLILLFNFSVVGVFAVFMSKFSILITQGYLVWIGVLVAYFFTLLPEWTTWVLLVALALYDIAAVLLPVGPLRLLVEMAISRDEDIPALVYEARPVIRNDSRSVQRRVWREQRSSQNNANRNEVRVVESAEVEEEHVGSSERAEISVPLIDRRPEQAENSETFLEGIGLGSSGAIKLGLGDFIFYSVLVGRAAMYDLMTVYACYLAIIAGLGITLMLLSVYQKALPALPVSIMLGVVFYFLARLLLEVFVVQCSSNLVMF
notes: Arabidopsis thaliana presenilin 2 (AtPS2, At2g29900); cDNA made from leaf RNA; FLIM-FRET donor; also called presenilin 2; AtAtPS2–GFP; source: A. thaliana leaf mesophyll protoplasts, transiently transfected (pSITE vector), in living cells; not shown: eGFP, C-terminal, kept

- FRET efficiency, E_(FRET) [3]: 19%
- FRET efficiency, E_(FRET) [1]: 19%
- FRET efficiency, E_(FRET) [2]: 24%
B3: AtPS1–GFP (natural protein, Arabidopsis thaliana, UniProt O64668 1-453, looked up)
chain: MESSILDSLGVEIIGVMAPVSICMFLVVLLTYSLSVTSDPQIRSAANLIYIENPSDSTTVKLEGSLANAIVFVVLIAAVTFILVLLFYYNFTNFLKHYMRFSAFFVLGTMGGAIFLSIIQHFSIPVDSITCFILLFNFTILGTLSVFAGGIPIVLRQCYMVVMGIVVAAWFTKLPEWTTWFILVALALYDLVAVLAPGGPLKLLVELASSRDEELPAMVYEARPTVSSGNQRRNRGSSLRALVGGGGVSDSGSVELQAVRNHDVNQLGRENSHNMDYNAIAVRDIDNVDDGIGNGSRGGLERSPLVGSPSASEHSTSVGTRGNMEDRESVMDEEMSPLVELMGWGDNREEARGLEESDNVVDISNRGIKLGLGDFIFYSVLVGRAAMYDLMTVYACYLAIISGLGCTLILLSVYNRALPALPISIMLGVVFYFLTRLLMEPFVVGVTTNLMMF
notes: Arabidopsis thaliana presenilin 1 (AtPS1, At1g08700); FLIM-FRET donor; also called presenilin 1; source: A. thaliana leaf mesophyll protoplasts, transiently transfected (pSITE vector), in living cells; not shown: eGFP, C-terminal, kept

More lines, now with the values behind:

B1: AtNCT–GFP (natural protein, Arabidopsis thaliana, UniProt Q8GUM5 29-676, looked up)
chain: T3 sequence (looked up)
notes: Arabidopsis thaliana nicastrin (AtNCT, At3g52640); FLIM-FRET donor; also called nicastrin; source: A. thaliana leaf mesophyll protoplasts, transiently transfected (pSITE vector), in living cells; not shown: eGFP, C-terminal, kept
- FRET efficiency, E_(FRET) [1]: 14%

B4: AtPEN-2–GFP (natural protein, Arabidopsis thaliana, UniProt Q9FY84 1-146, looked up)
chain: T2 sequence (looked up)
notes: Arabidopsis thaliana PEN-2 (AtPEN-2, At5g09310); FLIM-FRET donor; also called presenilin enhancer 2; source: A. thaliana leaf mesophyll protoplasts, transiently transfected (pSITE vector), in living cells; not shown: eGFP, C-terminal, kept
- FRET efficiency, E_(FRET) [3]: 11%
